What all share (test): GC-MS of hexane phase, Hanes-Woolf plot
Common to all, as to format: biochemical, Lavandula angustifolia
Common to all, as to conditions: 25 mM Tris-HCl pH 7.5, 10 mM MgCl2, 1 mM MnCl2, 30 °C, 2 h

Substrate in data set [1]: CC(C)=CCC/C(C)=C/COP(=O)(O)OP(=O)(O)O
An excerpt: GC-MS of hexane phase, Hanes-Woolf plot on LaBPPS (WT)

Substrate in data set [2]: CC(C)=CCC/C(C)=C/COP(=O)(O)OP(=O)(O)O
The source says:
GC-MS of hexane phase, Hanes-Woolf plot on ∆578–602
The source holds these as a separate data set.

Substrate in data set [3]: CC(C)=CCC/C(C)=C/COP(=O)(O)OP(=O)(O)O
The source says: GC-MS of hexane phase, Hanes-Woolf plot on ∆1–58
This is another data set of the same source.

Substrate in data set [4]: CC(C)=CCC/C(C)=C/COP(=O)(O)OP(=O)(O)O
An excerpt: GC-MS of hexane phase, Hanes-Woolf plot on ∆59–74
The source holds these as a separate data set.

Substrate in data set [5]: CC(C)=CCC/C(C)=C/COP(=O)(O)OP(=O)(O)O
The source says: GC-MS of hexane phase, Hanes-Woolf plot on ∆1–74
The source holds these as a separate data set.

B1: LaBPPS (WT) (Lavandula angustifolia subsp. angustifolia) (protein)
chain: MTAARSFMAINSNMTTDHLHKFGKKNLEFGQGYSCNNASPMRLRPCCSLKLSTNAESQLDSTRRSGMYKPTLWDFDRIQSLNSVYTEEKYSTRACDLIQQVKKLLEESDWFRQLQLIDDLQRLGLSYRFDDEINLILNTIYFEKKFCEKEMDLYSTSLAFRLLRQHGLKVSQEVFDCFKNEEGDFEARLGDETNGILEMCEASFLATEGEETLELARLFTTNILQKKLDDERNELLIMDDYLRTLIRHSLDLPLYWRVQRPSARWFIEAYATRSDMNPIMLELAKLDFNIVQATHQEELKQVSRWWKESRLAEKLPFARDRVVENYLWNRGMLFPPQYGYPRIMNAKLFVLITVLDDIYDVYGTLEETQLFTNLITRWDVEAIGQLPEYMRICYMAIDNNINELAYEVLKQHGLLIIQDLRKFWADLCVAYGKEAEWYYTGYKPTLEEYLEVAWVSISAHLILGYMFFLTSNPIEKEASQSLSNYHNIIRNSAMVLRLADDLGTSPYEMQRGDVPKAVECYMNENGASTEEAREYVKHLLREVWKETNGERFKESPFTPSFMRICADLGRMAQFMYQHGDGHGIRNLQMEDRIQSLIFEPIV
notes: full-length, codon-optimised gene, pHXGWA, E. coli Rosetta (DE3) pLysS, Talon resin, thrombin-cleaved; monomer by DLS
Consider B1, for which, in data set [1], the Km was 29.37 ± 1.21 µM and the kcat is 0.104 ± 0.00783 s⁻¹.

B2: ∆578–602 (Lavandula angustifolia subsp. angustifolia) (protein)
chain: MTAARSFMAINSNMTTDHLHKFGKKNLEFGQGYSCNNASPMRLRPCCSLKLSTNAESQLDSTRRSGMYKPTLWDFDRIQSLNSVYTEEKYSTRACDLIQQVKKLLEESDWFRQLQLIDDLQRLGLSYRFDDEINLILNTIYFEKKFCEKEMDLYSTSLAFRLLRQHGLKVSQEVFDCFKNEEGDFEARLGDETNGILEMCEASFLATEGEETLELARLFTTNILQKKLDDERNELLIMDDYLRTLIRHSLDLPLYWRVQRPSARWFIEAYATRSDMNPIMLELAKLDFNIVQATHQEELKQVSRWWKESRLAEKLPFARDRVVENYLWNRGMLFPPQYGYPRIMNAKLFVLITVLDDIYDVYGTLEETQLFTNLITRWDVEAIGQLPEYMRICYMAIDNNINELAYEVLKQHGLLIIQDLRKFWADLCVAYGKEAEWYYTGYKPTLEEYLEVAWVSISAHLILGYMFFLTSNPIEKEASQSLSNYHNIIRNSAMVLRLADDLGTSPYEMQRGDVPKAVECYMNENGASTEEAREYVKHLLREVWKETNGERFKESPFTPSFMRICADLGRMAQFMYQ
notes: C-terminal truncation, residues 578-602 deleted; E. coli, Talon resin, thrombin-cleaved
Take B2: in data set [2], the Km came to 14.83 ± 1.09 µM and the kcat is 0.195 ± 0.0143 s⁻¹.

B3: ∆1–58 (Lavandula angustifolia subsp. angustifolia) (protein)
chain: LDSTRRSGMYKPTLWDFDRIQSLNSVYTEEKYSTRACDLIQQVKKLLEESDWFRQLQLIDDLQRLGLSYRFDDEINLILNTIYFEKKFCEKEMDLYSTSLAFRLLRQHGLKVSQEVFDCFKNEEGDFEARLGDETNGILEMCEASFLATEGEETLELARLFTTNILQKKLDDERNELLIMDDYLRTLIRHSLDLPLYWRVQRPSARWFIEAYATRSDMNPIMLELAKLDFNIVQATHQEELKQVSRWWKESRLAEKLPFARDRVVENYLWNRGMLFPPQYGYPRIMNAKLFVLITVLDDIYDVYGTLEETQLFTNLITRWDVEAIGQLPEYMRICYMAIDNNINELAYEVLKQHGLLIIQDLRKFWADLCVAYGKEAEWYYTGYKPTLEEYLEVAWVSISAHLILGYMFFLTSNPIEKEASQSLSNYHNIIRNSAMVLRLADDLGTSPYEMQRGDVPKAVECYMNENGASTEEAREYVKHLLREVWKETNGERFKESPFTPSFMRICADLGRMAQFMYQHGDGHGIRNLQMEDRIQSLIFEPIV
notes: N-terminal truncation, residues 1-58 deleted; E. coli, Talon resin, thrombin-cleaved
As to B3, in data set [3], the Km was 28.12 ± 1.75 µM and the kcat was 0.113 ± 0.00583 s⁻¹.

B4: ∆59–74 (Lavandula angustifolia subsp. angustifolia; DEL59-74) (protein)
chain: MTAARSFMAINSNMTTDHLHKFGKKNLEFGQGYSCNNASPMRLRPCCSLKLSTNAESQFDRIQSLNSVYTEEKYSTRACDLIQQVKKLLEESDWFRQLQLIDDLQRLGLSYRFDDEINLILNTIYFEKKFCEKEMDLYSTSLAFRLLRQHGLKVSQEVFDCFKNEEGDFEARLGDETNGILEMCEASFLATEGEETLELARLFTTNILQKKLDDERNELLIMDDYLRTLIRHSLDLPLYWRVQRPSARWFIEAYATRSDMNPIMLELAKLDFNIVQATHQEELKQVSRWWKESRLAEKLPFARDRVVENYLWNRGMLFPPQYGYPRIMNAKLFVLITVLDDIYDVYGTLEETQLFTNLITRWDVEAIGQLPEYMRICYMAIDNNINELAYEVLKQHGLLIIQDLRKFWADLCVAYGKEAEWYYTGYKPTLEEYLEVAWVSISAHLILGYMFFLTSNPIEKEASQSLSNYHNIIRNSAMVLRLADDLGTSPYEMQRGDVPKAVECYMNENGASTEEAREYVKHLLREVWKETNGERFKESPFTPSFMRICADLGRMAQFMYQHGDGHGIRNLQMEDRIQSLIFEPIV
notes: internal deletion of residues 59-74; E. coli, Talon resin, thrombin-cleaved
For B4, in data set [4], the Km was 38.49 ± 2.58 µM and the kcat is 0.0562 ± 0.007 s⁻¹.

B5: ∆1–74 (Lavandula angustifolia subsp. angustifolia) (protein)
chain: FDRIQSLNSVYTEEKYSTRACDLIQQVKKLLEESDWFRQLQLIDDLQRLGLSYRFDDEINLILNTIYFEKKFCEKEMDLYSTSLAFRLLRQHGLKVSQEVFDCFKNEEGDFEARLGDETNGILEMCEASFLATEGEETLELARLFTTNILQKKLDDERNELLIMDDYLRTLIRHSLDLPLYWRVQRPSARWFIEAYATRSDMNPIMLELAKLDFNIVQATHQEELKQVSRWWKESRLAEKLPFARDRVVENYLWNRGMLFPPQYGYPRIMNAKLFVLITVLDDIYDVYGTLEETQLFTNLITRWDVEAIGQLPEYMRICYMAIDNNINELAYEVLKQHGLLIIQDLRKFWADLCVAYGKEAEWYYTGYKPTLEEYLEVAWVSISAHLILGYMFFLTSNPIEKEASQSLSNYHNIIRNSAMVLRLADDLGTSPYEMQRGDVPKAVECYMNENGASTEEAREYVKHLLREVWKETNGERFKESPFTPSFMRICADLGRMAQFMYQHGDGHGIRNLQMEDRIQSLIFEPIV
notes: N-terminal truncation, residues 1-74 deleted; E. coli, Talon resin, thrombin-cleaved
As to B5, in data set [5], the Km was 41.72 ± 2.15 µM and the kcat stood at 0.0532 ± 0.002 s⁻¹.

The term Km denotes the concentration of substrate that gives half-maximal velocity. Usually kcat stands for the number of substrate molecules converted per active site and unit of time at saturation.

The record behind these values is paper PMC12293770, “Mechanistic Insights into the Bornyl Diphosphate Synthase from Lavandula angustifolia” (Current Issues in Molecular Biology, 2025).
